# Measured values: patent publication US20150086555A1 (THERACLONE SCIENCES, published 2015)
# B1: TCN-560 (5084_P10) (antibody, V domains shown)
# VH: EVQLVESGGGLVQPGGSLRLSCAASGFIFRNYWMSWVRQAPGKGLEWVANIKQDGREKYYVDSLRGRVNISRDNAENSLYLHMNSLRVEDTAVYFCARARMVVVTGDGFDVWGHGTMVTVSS
# VL: DIQMTQSPSSLSASVGDRVTITCRASQNIKRYFNWYQQKPGKAPKLLIYAASNLENGVPSRFSGSGSGTDFTLTISSLQPEDFATYYCQQSFSKSWTFGQGTNVDIK
# B2: TCN-533 (5256_A17a) (antibody, V domains shown)
# VH: QVQLVQSGADVKKPGSSVTVSCKASGGSFSNYGINWVRQAPGQGLEWMGGIIPLINAPNYAPKFQGRVTITADMFSNIVSLQLTSLRTDDTAVYYCARRKMTTAIDYWGQGTLVTVSS
# VL: QPVLTQPPSASASLGASVTLTCTLSSAYSNYKVDWYQQRPGKGPRFVMRVGTGGIVGSKGDGIPDRFSVLGSGLNRYLTIKNIQEEDESDYHCGADHGSGSNFVSPYVFGGGTKLTVL
# B3: TCN-533 (5256_A17a) (antibody, V domains shown)
# VH: B2 VH
# VL: B2 VL
# B4: TCN-556 (5089_K12) (antibody, V domains shown)
# VH: QVQLVQSGAEVKKPGASVKVSCKASGYTFIGYDMHWVRQAPGQGLEWMGWINAKRGGTNYAQKFQGRVTMTRDTSISTAYMELNSLRSDDTAVYYCARGVGSRTTIFGVLNPEFDYWGQGTLVTVSS
# VL: QSALTQPPSASGSPGQSVTISCTGSSSDVGGYDYVSWYQQHPGKAPKLLIYEVTKRPSGVPDRFSGSKSGNTASLTVSGLQAEDEADYYCSSYAGNYNHVFGPGTKVTVL
# Columns and labels:
# [1] = molecular target: hemagglutinin on whole influenza A virions, A/Solomon Islands/3/06 H1N1 (Influenza A virus A/Solomon …); test: cell-based or functional assay
# [2] = molecular target: hemagglutinin on live influenza A virus, A/California/4/09 H1N1 (Influenza A virus …); test: cell-based or functional assay
# [3] = molecular target: hemagglutinin on whole influenza A virions, A/Wisconsin/67/05 H3N2 (Influenza A virus …); test: cell-based or functional assay
# [4] = molecular target: recombinant soluble homotrimeric HA, A/Egypt/3300-NAMRU3/08 H5N1 (Influenza A virus …); test: microarray, transfection SN IgG, trimeric HA
# [5] = molecular target: recombinant soluble homotrimeric HA, A/Hong Kong/156/97 H5N1 (Influenza A virus A/Hong Kong/156/97 …); test: microarray, transfection SN IgG, trimeric HA
# [6] = molecular target: recombinant soluble homotrimeric HA, A/California/4/09 H1N1 (Influenza A virus …); test: microarray, transfection SN IgG, trimeric HA
# [7] = molecular target: recombinant soluble homotrimeric HA, A/Wisconsin/67/05 H3N2 (Influenza A virus …); test: microarray, transfection SN IgG, trimeric HA
# [8] = molecular target: recombinant soluble homotrimeric HA, A/chicken/Vietnam/NCVD-016/08 H5N1 (Influenza A virus …); test: microarray, transfection SN IgG, trimeric HA
# [9] = molecular target: recombinant soluble homotrimeric HA, A/Japan/305/57 H2N2 (Influenza A virus A/Japan/305/1957(H2N2)); test: microarray, transfection SN IgG, trimeric HA
# [10] = molecular target: recombinant soluble homotrimeric HA, A/Indonesia/5/05 H5N1 (Influenza A virus …); test: microarray, transfection SN IgG, trimeric HA
# [11] = molecular target: recombinant soluble homotrimeric HA, A/Vietnam/1203/04 H5N1 (Influenza A virus …); test: microarray, transfection SN IgG, trimeric HA
# [12] = molecular target: recombinant soluble homotrimeric HA, A/duck/Yangzhou/02/05 H8N4 (Influenza A virus …); test: microarray, transfection SN IgG, trimeric HA
# [13] = molecular target: recombinant soluble homotrimeric HA, A/South Carolina/1/18 H1N1 (Influenza A virus A/South Carolina/1/18 …); test: microarray, transfection SN IgG, trimeric HA
# [14] = molecular target: recombinant soluble homotrimeric HA, A/Netherlands/219/03 H7N7 (Influenza A virus …); test: microarray, transfection SN IgG, trimeric HA
# [15] = molecular target: recombinant soluble homotrimeric HA, A/Anhui/1/05 H5N1 (Influenza A virus A/Anhui/1/2005(H5N1)); test: microarray, transfection SN IgG, trimeric HA
# [16] = molecular target: recombinant soluble homotrimeric HA, A/northern shoveler/California/HKWF115/07 H6N4 (Influenza A virus A/northern …); test: microarray, transfection SN IgG, trimeric HA
# [17] = molecular target: recombinant soluble homotrimeric HA, A/Solomon Islands/3/06 H1N1 (Influenza A virus A/Solomon …); test: microarray, transfection SN IgG, trimeric HA
# [18] = molecular target: recombinant soluble homotrimeric HA, A/swine/Ontario/01911-2/99 H4N6 (Influenza A virus …); test: microarray, transfection SN IgG, trimeric HA
# [19] = molecular target: recombinant soluble homotrimeric HA of A/chicken/Vietnam/NCVD-016/08 (H5N1) (Influenza A virus …); test: trimeric HA microarray, transfection supernatant set 3
# [20] = molecular target: recombinant soluble homotrimeric HA of A/Solomon Islands/3/06 (H1N1) (Influenza A virus A/Solomon …); test: as above
# [21] = molecular target: recombinant soluble homotrimeric HA of A/duck/Yangzhou/02/05 (H8N4) (Influenza A virus …); test: as above
# [22] = molecular target: recombinant soluble homotrimeric HA of A/Egypt/3300-NAMRU3/08 (H5N1) (Influenza A virus …); test: as above
# [23] = molecular target: recombinant soluble homotrimeric HA of A/California/4/09 (H1N1) (Influenza A virus …); test: as above
# [24] = molecular target: recombinant soluble homotrimeric HA of A/Indonesia/5/05 (H5N1) (Influenza A virus …); test: as above
# [25] = molecular target: recombinant soluble homotrimeric HA of A/Hong Kong/1073/99 (H9N2) (Influenza A virus A/Hong Kong/1073/99 …); test: as above
# [26] = molecular target: recombinant soluble homotrimeric HA of A/Hong Kong/2108/03 (H9N2) (Influenza A virus A/HK/2108/2003(H9N2)); test: as above
# [27] = molecular target: recombinant soluble homotrimeric HA of A/South Carolina/1/18 (H1N1) (Influenza A virus A/South Carolina/1/18 …); test: as above
# [28] = molecular target: recombinant soluble homotrimeric HA of A/Japan/305/57 (H2N2) (Influenza A virus A/Japan/305/1957(H2N2)); test: as above
# [29] = molecular target: recombinant soluble homotrimeric HA of A/Anhui/1/05 (H5N1) (Influenza A virus A/Anhui/1/2005(H5N1)); test: as above
# [30] = molecular target: recombinant soluble homotrimeric HA of A/Netherlands/219/03 (H7N7) (Influenza A virus …); test: as above
# [31] = molecular target: recombinant soluble homotrimeric HA of A/northern shoveler/California/HKWF115/07 (H6) (Influenza A virus A/northern …); test: as above
# [32] = molecular target: recombinant soluble homotrimeric HA of A/Wisconsin/67/05 (H3N2) (Influenza A virus …); test: as above
# [33] = molecular target: recombinant soluble homotrimeric HA of A/Vietnam/1203/04 (H5N1) (Influenza A virus …); test: as above
# [34] = molecular target: recombinant homotrimeric HA A/Solomon Islands/3/06 H1N1 (Influenza A virus A/Solomon …); test: protein microarray, purified IgG, trimeric HA
# [35] = molecular target: recombinant homotrimeric HA A/Hong Kong/2108/03 H9N2 (Influenza A virus A/HK/2108/2003(H9N2)); test: protein microarray, purified IgG, trimeric HA
# [36] = molecular target: recombinant homotrimeric HA A/northern shoveler/California/HKWF115/07 H6N4 (Influenza A virus A/northern …); test: protein microarray, purified IgG, trimeric HA
# [37] = molecular target: recombinant homotrimeric HA A/Vietnam/1203/04 H5N1 (Influenza A virus …); test: protein microarray, purified IgG, trimeric HA
# [38] = molecular target: recombinant homotrimeric HA A/Wisconsin/67/05 H3N2 (Influenza A virus …); test: protein microarray, purified IgG, trimeric HA
# [39] = molecular target: recombinant homotrimeric HA A/South Carolina/1/18 H1N1 (Influenza A virus A/South Carolina/1/18 …); test: protein microarray, purified IgG, trimeric HA
# [40] = molecular target: recombinant homotrimeric HA A/chicken/Vietnam/NCVD-016/08 H5N1 (Influenza A virus …); test: protein microarray, purified IgG, trimeric HA
# [41] = molecular target: recombinant homotrimeric HA A/Indonesia/5/05 H5N1 (Influenza A virus …); test: protein microarray, purified IgG, trimeric HA
# [42] = molecular target: recombinant homotrimeric HA A/Netherlands/219/03 H7N7 (Influenza A virus …); test: protein microarray, purified IgG, trimeric HA
# [43] = molecular target: recombinant homotrimeric HA A/Japan/305/57 H2N2 (Influenza A virus A/Japan/305/1957(H2N2)); test: protein microarray, purified IgG, trimeric HA
# [44] = molecular target: recombinant homotrimeric HA A/Hong Kong/156/97 H5N1 (Influenza A virus A/Hong Kong/156/97 …); test: protein microarray, purified IgG, trimeric HA
# [45] = molecular target: recombinant homotrimeric HA A/Hong Kong/1073/99 H9N2 (Influenza A virus A/Hong Kong/1073/99 …); test: protein microarray, purified IgG, trimeric HA
# [46] = molecular target: recombinant homotrimeric HA A/Egypt/3300-NAMRU3/08 H5N1 (Influenza A virus …); test: protein microarray, purified IgG, trimeric HA
# [47] = molecular target: recombinant homotrimeric HA A/Anhui/1/05 H5N1 (Influenza A virus A/Anhui/1/2005(H5N1)); test: protein microarray, purified IgG, trimeric HA
# [48] = molecular target: recombinant homotrimeric HA A/California/4/09 H1N1 (Influenza A virus …); test: protein microarray, purified IgG, trimeric HA
# [49] = molecular target: recombinant homotrimeric HA A/swine/Ontario/01911-2/99 H4N6 (Influenza A virus …); test: protein microarray, purified IgG, trimeric HA
# [50] = molecular target: recombinant homotrimeric HA A/duck/Yangzhou/02/05 H8N4 (Influenza A virus …); test: protein microarray, purified IgG, trimeric HA
binder,measurement,setting,value
B1,% Neutralization,[1],0%
same,% Neutralization,[2],0%
same,% Neutralization,[3],4%
same,Trimeric HA Binding: RLU,[4],18700 RLU
same,Trimeric HA Binding: RLU,[5],29300 RLU
same,Trimeric HA Binding: RLU,[6],31100 RLU
same,Trimeric HA Binding: RLU,[7],55400 RLU
same,Trimeric HA Binding: RLU,[8],18200 RLU
same,Trimeric HA Binding: RLU,[9],25900 RLU
same,Trimeric HA Binding: RLU,[10],17000 RLU
same,Trimeric HA Binding: RLU,[11],19500 RLU
same,Trimeric HA Binding: RLU,[12],27900 RLU
same,Trimeric HA Binding: RLU,[13],30500 RLU
same,Trimeric HA Binding: RLU,[14],32100 RLU
same,Trimeric HA Binding: RLU,[15],18600 RLU
same,Trimeric HA Binding: RLU,[16],35900 RLU
same,Trimeric HA Binding: RLU,[17],22400 RLU
same,Trimeric HA Binding: RLU,[18],16800 RLU
B2,Trimeric HA Binding: RLU,[19],24600 RLU
same,Trimeric HA Binding: RLU,[20],15500 RLU
same,Trimeric HA Binding: RLU,[21],711 RLU
same,Trimeric HA Binding: RLU,[22],18600 RLU
same,Trimeric HA Binding: RLU,[23],6880 RLU
same,Trimeric HA Binding: RLU,[24],28300 RLU
same,Trimeric HA Binding: RLU,[25],23800 RLU
same,Trimeric HA Binding: RLU,[26],33 RLU
same,Trimeric HA Binding: RLU,[27],16400 RLU
same,Trimeric HA Binding: RLU,[28],18600 RLU
same,Trimeric HA Binding: RLU,[29],301 RLU
same,Trimeric HA Binding: RLU,[30],209 RLU
same,Trimeric HA Binding: RLU,[31],7810 RLU
same,Trimeric HA Binding: RLU,[32],16100 RLU
same,Trimeric HA Binding: RLU,[33],11700 RLU
B3,Trimeric HA Binding: RLU,[34],12000 RLU
same,Trimeric HA Binding: RLU,[35],164 RLU
same,Trimeric HA Binding: RLU,[36],20400 RLU
same,Trimeric HA Binding: RLU,[37],26900 RLU
same,Trimeric HA Binding: RLU,[38],308 RLU
same,Trimeric HA Binding: RLU,[39],8670 RLU
same,Trimeric HA Binding: RLU,[40],5470 RLU
same,Trimeric HA Binding: RLU,[41],23100 RLU
same,Trimeric HA Binding: RLU,[42],712 RLU
same,Trimeric HA Binding: RLU,[43],23400 RLU
same,Trimeric HA Binding: RLU,[44],13200 RLU
same,Trimeric HA Binding: RLU,[45],5810 RLU
same,Trimeric HA Binding: RLU,[46],20600 RLU
same,Trimeric HA Binding: RLU,[47],5650 RLU
same,Trimeric HA Binding: RLU,[48],24000 RLU
B4,Trimeric HA Binding: RLU,[34],24300 RLU
same,Trimeric HA Binding: RLU,[35],25600 RLU
same,Trimeric HA Binding: RLU,[36],25000 RLU
same,Trimeric HA Binding: RLU,[37],21500 RLU
same,Trimeric HA Binding: RLU,[49],24100 RLU
same,Trimeric HA Binding: RLU,[38],2360 RLU
same,Trimeric HA Binding: RLU,[39],21000 RLU
same,Trimeric HA Binding: RLU,[40],22400 RLU
same,Trimeric HA Binding: RLU,[41],23000 RLU
same,Trimeric HA Binding: RLU,[42],21000 RLU
same,Trimeric HA Binding: RLU,[43],25800 RLU
same,Trimeric HA Binding: RLU,[44],18600 RLU
same,Trimeric HA Binding: RLU,[45],995 RLU
same,Trimeric HA Binding: RLU,[46],24800 RLU
same,Trimeric HA Binding: RLU,[50],18300 RLU
same,Trimeric HA Binding: RLU,[47],26900 RLU
same,Trimeric HA Binding: RLU,[48],25800 RLU
